Results: the supplement of paper PMC6757056
± gives the standard deviation of the averaged measurements.

B1: library; a variant is named by its letters at N, in order (parent)
chain: GCUGUCACCGAGAAACUGUGAAGUAUAUCUUAAACCUGGGCACUUAAAAGAUAUAUGGAGUUAGUAGUGCAACCUGCUCGGUCUGAUGAGUCCNNNNNNGGACGAAACAGC

Tests used:
cyclic di-GMP [1] = variants of: B1; test: normalized RNA/DNA level without ligand (relative to sTRSVctl = 100) (log10 (% of sTRSVctl)); HEK293T; ligand: cyclic di-GMP (c-di-GMP-II aptamer); higher = less ribozyme self-cleavage, higher mRNA level; details: reporter: mCherry (pCS4076), ligand present: no
Outline: (§1)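 Ribozyme switch library plasmids linked to reporters were introduced into HEK293T cells at 4 µg per 6-well well, with ligand, if any, added 1 h before. Total RNA was extracted with EDTA 72 h later, reverse-transcribed, amplified, barcoded and sequenced. RNA level was computed from RNA over DNA reads relative to a spiked-in non-cleaving sequence or the top sequences, then scaled and log-transformed. The top set was 25 sequences, values were ×100 and log10, and the cutoff was ≥100 DNA reads.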

cyclic di-GMP [2] = variants of: B1; test: normalized RNA/DNA level with ligand (relative to sTRSVctl = 100) (log10 (% of sTRSVctl)); HEK293T; ligand: cyclic di-GMP (c-di-GMP-II aptamer); ligand concentration (+) RNA-Seq: 1 mM; higher = less ribozyme self-cleavage, higher mRNA level; details: reporter: mCherry (pCS4076), ligand present: yes
Outline: as §1

| Variant | normalized RNA/DNA level without ligand (log10) (cyclic di-GMP [1]) | normalized RNA/DNA level with ligand (log10) (cyclic di-GMP [2]) |
| --- | --- | --- |
| GCUGUCACCGAGAAACUGUGAAGUAUAUCUUAAACCUGGGCACUUAAAAGAUAUAUGGAGUUAGUAGUGCAACCUGCUCGGUCUGAUGAGUCCGAUAGGGGACGAAACAGC [GAUAGG] | 1.573 ± 0.0085 | 1.73 ± 0.087 |
| GCUGUCACCGAGAAACUGUGAAGUAUAUCUUAAACCUGGGCACUUAAAAGAUAUAUGGAGUUAGUAGUGCAACCUGCUCGGUCUGAUGAGUCCGAUAGUGGACGAAACAGC [GAUAGU] | 1.62 ± 0.045 | 1.78 ± 0.1 |
| GCUGUCACCGAGAAACUGUGAAGUAUAUCUUAAACCUGGGCACUUAAAAGAUAUAUGGAGUUAGUAGUGCAACCUGCUCGGUCUGAUGAGUCCUAUAUGGGACGAAACAGC [UAUAUG] | 1.71 ± 0.044 | 1.84 ± 0.12 |
| GCUGUCACCGAGAAACUGUGAAGUAUAUCUUAAACCUGGGCACUUAAAAGAUAUAUGGAGUUAGUAGUGCAACCUGCUCGGUCUGAUGAGUCCUAUAUAGGACGAAACAGC [UAUAUA] | 1.68 ± 0.076 | 1.86 ± 0.11 |
| GCUGUCACCGAGAAACUGUGAAGUAUAUCUUAAACCUGGGCACUUAAAAGAUAUAUGGAGUUAGUAGUGCAACCUGCUCGGUCUGAUGAGUCCGAUAUCGGACGAAACAGC [GAUAUC] | 1.6972 ± 0.0005 | 1.86 ± 0.12 |
| GCUGUCACCGAGAAACUGUGAAGUAUAUCUUAAACCUGGGCACUUAAAAGAUAUAUGGAGUUAGUAGUGCAACCUGCUCGGUCUGAUGAGUCCGAUAUGGGACGAAACAGC [GAUAUG] | 1.52 ± 0.028 | 1.71 ± 0.096 |
| GCUGUCACCGAGAAACUGUGAAGUAUAUCUUAAACCUGGGCACUUAAAAGAUAUAUGGAGUUAGUAGUGCAACCUGCUCGGUCUGAUGAGUCCGAUAUAGGACGAAACAGC [GAUAUA] | 1.53 ± 0.032 | 1.7 ± 0.1 |
| GCUGUCACCGAGAAACUGUGAAGUAUAUCUUAAACCUGGGCACUUAAAAGAUAUAUGGAGUUAGUAGUGCAACCUGCUCGGUCUGAUGAGUCCUAUAGGGGACGAAACAGC [UAUAGG] | 1.68 ± 0.023 | 1.85 ± 0.11 |
| GCUGUCACCGAGAAACUGUGAAGUAUAUCUUAAACCUGGGCACUUAAAAGAUAUAUGGAGUUAGUAGUGCAACCUGCUCGGUCUGAUGAGUCCAAUAUAGGACGAAACAGC [AAUAUA] | 1.53 ± 0.054 | 1.72 ± 0.13 |
| GCUGUCACCGAGAAACUGUGAAGUAUAUCUUAAACCUGGGCACUUAAAAGAUAUAUGGAGUUAGUAGUGCAACCUGCUCGGUCUGAUGAGUCCAAUAUGGGACGAAACAGC [AAUAUG] | 1.61 ± 0.06 | 1.74 ± 0.11 |
| GCUGUCACCGAGAAACUGUGAAGUAUAUCUUAAACCUGGGCACUUAAAAGAUAUAUGGAGUUAGUAGUGCAACCUGCUCGGUCUGAUGAGUCCAAUAUCGGACGAAACAGC [AAUAUC] | 1.67 ± 0.022 | 1.81 ± 0.079 |
| GCUGUCACCGAGAAACUGUGAAGUAUAUCUUAAACCUGGGCACUUAAAAGAUAUAUGGAGUUAGUAGUGCAACCUGCUCGGUCUGAUGAGUCCCAUAUGGGACGAAACAGC [CAUAUG] | 1.718 ± 0.017 | 1.81 ± 0.053 |
| GCUGUCACCGAGAAACUGUGAAGUAUAUCUUAAACCUGGGCACUUAAAAGAUAUAUGGAGUUAGUAGUGCAACCUGCUCGGUCUGAUGAGUCCCAUAUCGGACGAAACAGC [CAUAUC] | 1.63 ± 0.069 | 1.79 ± 0.047 |
